# Results: patent US20100311820, “NUCLEIC ACID MODULATORS OF GLYCOPROTEIN VI” (Regado Biosciences, Inc, published 2010)
# B1: EF-1 (RB424) (ssRNA)
# RNA: GGGAGGACGAUGCGGCAAUCGAAGCUGCAUCCAGCGUAAGCCUUCCAGGGAUCGUCAGACGACUCGCUGAGGAUCCGAGA
# modifications: 2'-F C and U; 2'-OH A and G
# B2: EF-2 (RB427) (ssRNA)
# RNA: GGGAGGACGAUGCGGUGCCAAAACACCCGUCUUGCAUAAGCCUCCUACGGCAACUCAGACGACUCGCUGAGGAUCCGAGA
# modifications: 2'-F C and U; 2'-OH A and G
# Assays:
# [1] = molecular target: T1, Glycoprotein VI extracellular domain (Gln21-Lys267) (Homo sapiens) (UniProt Q9HCN6); test: filter
# T1 sequence: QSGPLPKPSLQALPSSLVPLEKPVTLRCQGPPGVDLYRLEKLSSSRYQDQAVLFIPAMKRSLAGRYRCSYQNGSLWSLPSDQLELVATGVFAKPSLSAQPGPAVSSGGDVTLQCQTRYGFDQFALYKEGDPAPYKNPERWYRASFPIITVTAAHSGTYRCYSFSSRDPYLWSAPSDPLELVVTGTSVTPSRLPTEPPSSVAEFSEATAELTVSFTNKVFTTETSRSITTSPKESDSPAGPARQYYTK
# [2] = molecular target: T2, Glycoprotein VI extracellular domain (Gln21-Lys267) (Homo sapiens, UniProt Q9HCN6 SEQ:1-247); test: filter; details: tags: C-terminal His6; R&D Systems 3627-GP; label: 5'-32P
# T2 chain: T1 sequence
# Protocol: (§1) Enrichment of the ligand libraries for GPVI was monitored in direct binding studies utilizing radiolabeled ligand RNA from respective rounds of SELEX and soluble GPVI. Binding studies were performed with trace P³² end-labeled RNA added to serial dilutions of GPVI in Binding Buffer F. To prepare radiolabeled RNAs for binding studies, one hundred picomoles of RNA was dephosphorylated with Bacterial Alkaline Phopshatase at 50° C. for 1 hour. The reaction was phenol:chloroform:isoamyl alcohol (25:24:1) extracted, chloroform: isoamyl:alcohol (24:1) extracted, and ethanol precipitated. Three pmoles of dephosphorylated RNA was end labeled with T4 Poylnucleotide Kinase with supplied buffer, and 20 μCi of γ-P³²-ATP and subsequently cleaned with a Biorad MicroBio Spin P-30 spin column. End-labeled RNA was diluted to a final concentration of 2000 cpm/μL and heat denatured at 65° C. for 5 minutes. RNA and GPVI dilutions were equilibrated at 37° C. prior to use. RNA (5 μL) was added to varying concentrations of GPVI (15 μL) at 37° C. and incubated together for 5 to 15 minutes. The complexed RNA/GPVI protein mixture was then loaded over a Protean BA85 nitrocellulose membrane, overlayed on a Genescreen Plus Nylon membrane, in a 96 well vacuum manifold system with washing. The membranes were exposed to a phosphorimager screen, scanned, and quantitated with a Molecular Dynamics Storm 840 Phosphorimager. The fraction bound was calculated by dividing the counts on the nitrocellulose by the total counts and adjusting for the background. Results for binding of enriched ligand libraries from round 10 E2 and round 10 EF of the SELEX as compared to the GPVI-naïve starting ligand library are shown in FIG. 3.
# [3] = molecular target: T2, Glycoprotein VI extracellular domain …; test: filter; buffer F, 37 C; details: tags: C-terminal His6; R&D Systems 3627-GP; label: 5'-32P
# [4] = molecular target: T2, Glycoprotein VI extracellular domain …; test: filter; text: family range about 11 to 50 nM, EF-1 lowest affinity; details: tags: C-terminal His6; R&D Systems 3627-GP; label: 5'-32P
# Protocol: as §1, with “RNA and GPVI dilutions were equilibrated at 37° C. prior to use. RNA (5 μL) was added to varying concentrations of GPVI (15 μL) at 37° C. and incubated together for 5 to 15 minutes. The complexed RNA/GPVI protein mixture was then loaded over a Protean BA85 nitrocellulose membrane, overlayed on a Genescreen Plus Nylon membrane, in a 96 well vacuum manifold system with washing.” left out, “Results for binding of enriched ligand libraries from round 10 E2 and round 10 EF of the SELEX as compared to the GPVI-naïve starting ligand library are shown in FIG. 3.” left out
# (§2) The affinity of each of the anti-GPVI ligands for GPVI was determined by direct binding studies using radiolabeled trace ligand RNA and soluble GPVI, per the binding methodology described above in Example 1.
# [5] = molecular target: T2, Glycoprotein VI extracellular domain …; test: competition; competition with radiolabeled parent; details: tags: C-terminal His6; R&D Systems 3627-GP
# [6] = molecular target: T2, Glycoprotein VI extracellular domain …; test: filter; equivalent to full-length EF-1; details: tags: C-terminal His6; R&D Systems 3627-GP; label: 5'-32P
# Protocol: as §1, with “The complexed RNA/GPVI protein mixture was then loaded over a Protean BA85 nitrocellulose membrane, overlayed on a Genescreen Plus Nylon membrane, in a 96 well vacuum manifold system with washing.” left out, “Results for binding of enriched ligand libraries from round 10 E2 and round 10 EF of the SELEX as compared to the GPVI-naïve starting ligand library are shown in FIG. 3.” left out
# [7] = molecular target: T2, Glycoprotein VI extracellular domain …; test: filter; p374 states 2-4 nM; buffer F (150 mM NaCl, 2 mM CaCl2), 37 C; details: tags: C-terminal His6; R&D Systems 3627-GP; label: 5'-32P
# Protocol: as §1, with “The complexed RNA/GPVI protein mixture was then loaded over a Protean BA85 nitrocellulose membrane, overlayed on a Genescreen Plus Nylon membrane, in a 96 well vacuum manifold system with washing.” left out, “Results for binding of enriched ligand libraries from round 10 E2 and round 10 EF of the SELEX as compared to the GPVI-naïve starting ligand library are shown in FIG. 3.” left out
# [8] = molecular target: T2, Glycoprotein VI extracellular domain …; test: filter; text p359 names it EF-3 T2mut8; details: tags: C-terminal His6; R&D Systems 3627-GP; label: 5'-32P
# Protocol: as §1, with “The complexed RNA/GPVI protein mixture was then loaded over a Protean BA85 nitrocellulose membrane, overlayed on a Genescreen Plus Nylon membrane, in a 96 well vacuum manifold system with washing.” left out, “Results for binding of enriched ligand libraries from round 10 E2 and round 10 EF of the SELEX as compared to the GPVI-naïve starting ligand library are shown in FIG. 3.” left out
# [9] = molecular target: T2, Glycoprotein VI extracellular domain …; test: filter; text p359 names it EF-3 T2 mut9; details: tags: C-terminal His6; R&D Systems 3627-GP; label: 5'-32P
# Protocol: as §1, with “The complexed RNA/GPVI protein mixture was then loaded over a Protean BA85 nitrocellulose membrane, overlayed on a Genescreen Plus Nylon membrane, in a 96 well vacuum manifold system with washing.” left out, “Results for binding of enriched ligand libraries from round 10 E2 and round 10 EF of the SELEX as compared to the GPVI-naïve starting ligand library are shown in FIG. 3.” left out
# [10] = molecular target: T2, Glycoprotein VI extracellular domain …; test: filter; text p359 names it EF-3 T2mut10; details: tags: C-terminal His6; R&D Systems 3627-GP; label: 5'-32P
# Protocol: as §1, with “The complexed RNA/GPVI protein mixture was then loaded over a Protean BA85 nitrocellulose membrane, overlayed on a Genescreen Plus Nylon membrane, in a 96 well vacuum manifold system with washing.” left out, “Results for binding of enriched ligand libraries from round 10 E2 and round 10 EF of the SELEX as compared to the GPVI-naïve starting ligand library are shown in FIG. 3.” left out
# [11] = molecular target: T2, Glycoprotein VI extracellular domain …; test: competition; competition with radiolabeled parent ligand; details: tags: C-terminal His6; R&D Systems 3627-GP
# [12] = molecular target: T2, Glycoprotein VI extracellular domain …; test: filter; buffer F, 37 C; details: tags: C-terminal His6; R&D Systems 3627-GP; label: 5'-32P
# Protocol: as §1, with “RNA and GPVI dilutions were equilibrated at 37° C. prior to use. RNA (5 μL) was added to varying concentrations of GPVI (15 μL) at 37° C. and incubated together for 5 to 15 minutes. The complexed RNA/GPVI protein mixture was then loaded over a Protean BA85 nitrocellulose membrane, overlayed on a Genescreen Plus Nylon membrane, in a 96 well vacuum manifold system with washing.” left out, “Results for binding of enriched ligand libraries from round 10 E2 and round 10 EF of the SELEX as compared to the GPVI-naïve starting ligand library are shown in FIG. 3.” left out
# as §2
# [13] = molecular target: T2, Glycoprotein VI extracellular domain …; test: competition; 5' linker ligands assayed by competition; details: tags: C-terminal His6; R&D Systems 3627-GP
molecule,measurement,setting,value
GGGAGGACGACGCGUCUGGCAUAAGCCUCCC [RB536],Kd,[1]; RB535 with 2'-OMe G9,> 40 nM
GGAGGACGGCGCGCCUGGCAUAAGCCUCC [RB521],Kd,"[1]; RB520 pattern, hexaethylene glycol spacer between G11 and C12, 3' idT, buffer F, 37 C",6 nM
GGAGGACGGCGCGCCUGGCAUAAGCCUCC [RB537],Kd,"[1]; RB526 pattern, hexaethylene glycol spacer between G11 and C12, 3' idT",< 10 nM
GGAGGACGGCGCGCCUGGCAUAAGCCUCC [RB507],Kd,"[1]; RB490 pattern, hexaethylene glycol spacer between G11 and C12, 3' idT",< 10 nM
GGAGGACGGCGCGCCUGGCAUAAGCCUCC [RB540],Kd,"[1]; 2'-OH G1, 2'-deoxy A6,G8,G9, 2'-F C7,C14,C15,U16,C19,U21, all others 2'-OMe, hexaethylene glycol spacer between G11 and C12, 3' idT, buffer F, 37 C",15 nM
"GGAGGACGGCGCGCCUGGCAUAAGCCUCC (ssRNA, RB551 with PS A6-C7) [RB553]",Kd,[2],15.5 nM
"GGAGGACGGCGCGCCUGGCAUAAGCCUCC (ssRNA, RB540 with 2'-OH G8) [RB551]",Kd,[2],15.5 nM
"GGGAGGACGGCGCUAACGCCUGGCAUAAGCCUCCC (ssRNA, 2'-F C and U; 2'-OH A and G; 3' idT) [RB448]",Kd,[3],~14.5 nM
"GGGAGGACGGCGCUAACGCCUGGCAUAAGCCUCCC (ssRNA, RB448 with 2'-OMe throughout Stem 1) [RB453]",Kd,[2],< 10 nM
"GGGAGGACGGCGCUAACGCCUGGCAUAAGCCUCCC (ssRNA, RB448 with 2'-OMe G23,C30) [RB462]",Kd,[2],< 10 nM
B1,Kd,[4],> 40 nM
"GGGAGGACGUGCGGUCUAAGCUGCGCUGGCAUAAGCCUCCC (ssRNA, 2'-F C and U; 2'-OH A and G) [EF-31 T4 (RB441)]",Kd,[2],> 40 nM
"GGAGGACGGCGCGCCUGGCAUAAGCCUCC (ssRNA, RB542 with 5' branched 40 kDa PEG) [RB570]",Kd,[5],15.5 nM
"GGAGGACGGCGCGCCUGGCAUAAGCCUCC (ssRNA, RB560 with 5' branched 40 kDa PEG) [RB569]",Kd,[5],< 10 nM
"GGAGGACGGCGCGCCUGGCAUAAGCCUCC (ssRNA, RB540 with PS G8-G9) [RB549]",Kd,[3],~6.48 nM
"GGAGGACGGCGCGCCUGGCAUAAGCCUCC (ssRNA, RB566 with 2'-OMe G1 and 5' hexylamino linker) [RB567]",Kd,[5],< 10 nM
"GGGAGGACGUGCGGAUCACACCGCGCUUGCGUAAGCCUCCC (ssRNA, 2'-F C and U; 2'-OH A and G) [EF-3 T3 (RB445)]",Kd,[2],> 40 nM
"GGGAGGACGAUGCGGCAAUCGAAGCUGCAUCCAGCGUAAGCCUUCC (ssRNA, 2'-F C and U; 2'-OH A and G) [EF-1 T1 (RB426)]",Kd,[6],> 40 nM
"GGAGGACGGCGCGCCUGGCAUAAGCCUCC (ssRNA, RB540 with PS G8-G9 and G9-C10) [RB566]",Kd,[7],~2.45 nM
"GGGAGGACGGCGAUCACACGCCUGGCGUAAGCCUCCC (ssRNA, 2'-F C and U; 2'-OH A and G) [EF-3 T5 mut8]",Kd,[8],15.5 nM
"GGGAGGACGGCGAUCACACGCCUUGCAUAAGCCUCCC (ssRNA, 2'-F C and U; 2'-OH A and G) [EF-3 T5 mut9]",Kd,[9],15.5 nM
"GGGAGGACGGCGAUCACACGCCUGGCAUAAGCCUCCC (ssRNA, 2'-F C and U; 2'-OH A and G) [EF-3 T5 mut10]",Kd,[10],15.5 nM
"GGAGGACGGCGCGCCUGGCAUAAGCCUCC (ssRNA, RB549 with 2'-OMe G1 and 5' hexylamino linker) [RB560]",Kd,[5],< 10 nM
"GGAGGACGGCGCGCCUGGCAUAAGCCUCC (ssRNA, RB551 with PS G5-A6) [RB552]",Kd,[2],15.5 nM
"GGAGGACGGCGCGCCUGGCAUAAGCCUCC (ssRNA, RB567 with 5' branched 40 kDa PEG) [RB571]",Kd,[11],~5 nM
B2,Kd,[12],15.5 nM
"GGGAGGACGGCGCGCCUGGCAUAAGCCUCCC (ssRNA, RB490 with 5' hexylamino linker) [RB508]",Kd,[13],< 10 nM
"GGGAGGACGGCGCGCCUGGCAUAAGCCUCCC (ssRNA, RB490 with 2'-OMe G6,A7,C8) [RB517]",Kd,[2],> 40 nM
"GGGAGGACGGCGCGCCUGGCAUAAGCCUCCC (ssRNA, RB520 with 2'-OMe A7,G9) [RB523]",Kd,[2],> 40 nM
"GGGAGGACGGCGCGCCUGGCAUAAGCCUCCC (ssRNA, RB524 with 2'-OMe A7, 2'-deoxy G9) [RB528]",Kd,[2],> 40 nM
"GGGAGGACGGCGCGCCUGGCAUAAGCCUCCC (ssRNA, RB524 with 2'-OMe A7,G9) [RB527]",Kd,[2],> 40 nM
"GGGAGGACGGCGCGCCUGGCAUAAGCCUCCC (ssRNA, RB490 with 2'-OMe G6,C15,A21,A23,A24,G25) [RB520]",Kd,[3],~6 nM
"GGGAGGACGGCCUAAGCCUGGCAUAAGCCUCCC (ssRNA, 2'-F C and U; 2'-OH A and G) [EF-31 T8]",Kd,[2],> 40 nM
"GGAGGACGGCGCGCCUGGCAUAAGCCUCC (ssRNA, RB540 with 2'-OMe G1 and 5' hexylamino linker) [RB542]",Kd,[5],15.5 nM
"GGAGGACGGCGCGCCUGGCAUAAGCCUCC (ssRNA, RB540 with PS C7-G8) [RB548]",Kd,[2],15.5 nM
